Data from PMC5676692.

Target: integrin αVβ6 heterodimer (integrin alpha-V, ITGAV, and integrin beta-6, ITGB6) (human (endogenous in HEK293T)) (UniProt P18564)
UniProt P18564, sequence (P18564 whole entry, looked up, one chain of several): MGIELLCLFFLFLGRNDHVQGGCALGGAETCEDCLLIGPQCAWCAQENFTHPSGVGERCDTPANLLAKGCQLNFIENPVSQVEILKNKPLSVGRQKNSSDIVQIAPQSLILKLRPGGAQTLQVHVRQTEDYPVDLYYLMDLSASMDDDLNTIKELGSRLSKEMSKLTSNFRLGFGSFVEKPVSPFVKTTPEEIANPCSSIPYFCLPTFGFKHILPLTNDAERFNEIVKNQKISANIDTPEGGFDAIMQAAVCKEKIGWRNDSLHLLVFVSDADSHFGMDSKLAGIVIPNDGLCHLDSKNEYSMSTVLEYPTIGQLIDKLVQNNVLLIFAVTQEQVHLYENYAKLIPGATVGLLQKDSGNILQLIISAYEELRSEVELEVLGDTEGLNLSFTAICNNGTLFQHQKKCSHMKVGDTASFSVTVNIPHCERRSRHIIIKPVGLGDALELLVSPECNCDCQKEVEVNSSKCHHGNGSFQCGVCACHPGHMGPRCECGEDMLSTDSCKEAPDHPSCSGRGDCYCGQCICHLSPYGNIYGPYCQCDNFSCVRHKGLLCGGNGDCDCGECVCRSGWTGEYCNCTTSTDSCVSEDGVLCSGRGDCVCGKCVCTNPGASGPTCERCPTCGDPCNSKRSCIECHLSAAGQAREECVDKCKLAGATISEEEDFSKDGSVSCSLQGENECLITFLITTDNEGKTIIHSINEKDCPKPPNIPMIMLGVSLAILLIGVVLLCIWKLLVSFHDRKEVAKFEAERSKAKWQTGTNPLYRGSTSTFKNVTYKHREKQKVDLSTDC

control AAV9 viral particle (unmodified AAV9 capsid) (from UniProt Q6JC40 1-736; Q6JC40 138-736; Q6JC40 203-736) (complex)
AAV9-GFP transduction (GFP+ cells after 24 h) of HEK293T, Hela or U87 cells pre-treated for 2 h with 20 µg/ml of a mouse anti-human αVβ6 functional blocking antibody, against PBS control: 50%
